Read-outs that look alike come from different tables or passages of the source.
Assays:
Assay in all cases: SPR; ProteON XPR36, GLC chip; BMP-2 immobilised by amine coupling (1000-2000 RU), CV2 VWC1 proteins as analytes in six concentrations; 25 °C, HBST500 (10 mM HEPES pH 7.4, 500 mM NaCl, 0.005% Tween20); global Langmuir 1:1 fit, KD = koff/kon, or from dose-dependency of equilibrium binding for weak or fast binders; apparent KD
[1] = target: E. coli derived recombinant human BMP-2 (human) (UniProt P12643)
[2] = target: E. coli derived recombinant human BMP-2 (human) (UniProt P12643); remark: listed apart in the source
[3] = target: E. coli derived recombinant human BMP-2 (human) (UniProt P12643); remark: listed apart in the source

Sequence of E. coli derived recombinant human BMP-2 (human) (P12643 283-396): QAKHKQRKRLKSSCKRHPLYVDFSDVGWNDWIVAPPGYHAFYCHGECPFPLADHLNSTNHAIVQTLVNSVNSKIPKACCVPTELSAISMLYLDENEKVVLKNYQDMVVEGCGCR

| Substance | Kd [1] | koff [1] | kon [1] | koff [2] | Kd [3] |
| --- | --- | --- | --- | --- | --- |
| CV2 VWC1 G4A (domain or fragment) | 0.239 µM | > 0.05 s⁻¹ |  | 0.06 s⁻¹ |  |
| CV2 VWC1 InsA10 (domain or fragment) | 0.013 µM | 0.0012 s⁻¹ | 910000 M⁻¹ s⁻¹ |  |  |
| VWC1 domain (von Willebrand type C domain 1) of Danio rerio Crossveinless 2, wildtype (domain or fragment) | 0.013 µM | 0.0087 s⁻¹ | 650000 M⁻¹ s⁻¹ |  | 0.014 µM |

Further lines, results first:

| Kd [1] | koff [1] | kon [1] | koff [2] | Kd [3] | Substance |
| --- | --- | --- | --- | --- | --- |
| 0.012 µM | 0.0073 s⁻¹ | 630000 M⁻¹ s⁻¹ |  |  | CV2 VWC1 E6P (domain or fragment) |
| 0.013 µM | 0.0095 s⁻¹ | 750000 M⁻¹ s⁻¹ |  |  | CV2 VWC1 E10A (domain or fragment) |
